Biological target: T1, Flag-tagged Drosophila Iron Regulatory Protein 1A (IRP1A), wild type (Drosophila, UniProt Q9VCV4 1-902)
T1 construct: Drosophila IRP1A, cDNA LD36161; also called wild type IRP1A; 3x Flag-tagged IRP1A; source: S2 cells, transfected, in lysate
T1 sequence (looked up): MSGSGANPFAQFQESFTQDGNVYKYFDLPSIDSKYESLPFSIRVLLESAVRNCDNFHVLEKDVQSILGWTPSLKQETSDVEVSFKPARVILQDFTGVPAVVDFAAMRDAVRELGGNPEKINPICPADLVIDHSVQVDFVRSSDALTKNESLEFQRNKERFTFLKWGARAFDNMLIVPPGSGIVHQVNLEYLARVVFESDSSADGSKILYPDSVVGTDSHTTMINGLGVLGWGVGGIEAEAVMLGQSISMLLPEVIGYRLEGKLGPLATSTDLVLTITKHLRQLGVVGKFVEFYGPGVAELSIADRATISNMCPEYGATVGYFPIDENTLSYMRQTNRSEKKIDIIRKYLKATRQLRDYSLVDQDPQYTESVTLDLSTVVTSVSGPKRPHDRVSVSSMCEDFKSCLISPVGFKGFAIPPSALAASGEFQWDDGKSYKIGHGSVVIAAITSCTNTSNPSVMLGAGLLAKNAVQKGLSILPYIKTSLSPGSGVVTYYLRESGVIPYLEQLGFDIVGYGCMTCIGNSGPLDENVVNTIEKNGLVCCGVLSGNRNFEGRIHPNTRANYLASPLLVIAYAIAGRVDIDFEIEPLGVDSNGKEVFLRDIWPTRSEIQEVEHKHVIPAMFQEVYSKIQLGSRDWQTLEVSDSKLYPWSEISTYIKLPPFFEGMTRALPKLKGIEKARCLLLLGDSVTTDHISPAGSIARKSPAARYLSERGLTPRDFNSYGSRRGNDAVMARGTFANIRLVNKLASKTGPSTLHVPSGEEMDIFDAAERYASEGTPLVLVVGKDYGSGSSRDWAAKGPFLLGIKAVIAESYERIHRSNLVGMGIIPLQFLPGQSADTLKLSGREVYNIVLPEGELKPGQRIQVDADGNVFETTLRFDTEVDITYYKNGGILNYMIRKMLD
Assay: co-IP; S2 cells, triple co-transfection of 3xFlag-IRP1A, 6xMyc-AGBE and 3xHA-Cisd2 from one plasmid; Flag-IRP1A as bait; co-precipitated Cisd2 quantified against the sample without AGBE; three biological replicates
Details: partners not purified

fold change of co-immunoprecipitated Cisd2 with AGBE co-transfected against without AGBE: ~3 fold
B1: HA-tagged Drosophila Cisd2 (natural protein, UniProt Q9VAM6 1-133, looked up)
chain: MEPISHLVKSSLPNYLSSLPVPDSIGGWFKLSFKDWLALIPPTVVVAGLGYTAYLAYCPAARASCAAKNSGRCNNHIRKNEPKVVDMIDVEDIAEKAAFCRCWKTKNWPYCDGSHGEHNKQTGDNVGPIVIKK
notes: Drosophila Cisd2, cDNA RE49709; also called mitoNEET; Cisd2/mitoNEET; source: S2 cells, transfected, in lysate

— paper PMC6884552, “Glycogen branching enzyme controls cellular iron homeostasis via Iron Regulatory Protein 1 and mitoNEET” (Nature Communications, 2019)
